Results published in patent US6030783, “Photo-potentiation of cisplatin chemotherapy” (Massachusetts Institute of Technology).

Assays:
HMG1 = conditions: [Pt(en)Cl2]; photo-cross-linking efficiency about half that of cis-DDP probe
HMG domain B (of HMG1) [1] = biological target: T1, HMG domain B (of HMG1) (UniProt P63159 P63159:86-165); assay: EMSA; 10-40 equiv protein; about 50% shifted at 1 uM DNA with 1.5 equiv (Example 5); also photo-cross-links at 302 nm via Lys-6; 10 mM Tris pH 7.5, 10 mM MgCl2, 50 mM KCl; conditions: tags: expressed from pHB1 in E. coli BL21(DE3); label: 5'-32P
T1 sequence (P63159 86-165, one chain of several): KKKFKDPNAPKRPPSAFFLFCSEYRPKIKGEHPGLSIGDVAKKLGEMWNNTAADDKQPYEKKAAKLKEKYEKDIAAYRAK
Procedure: Reaction mixtures (10 µL total volume) were prepared containing 10 mM Tris-HCl, pH 7.5, 4% (v/v) glycerol, 10 mM MgCl2, 50 mM KCl, 1 mM EDTA and 0.05% (v/v) Nonidet P-40. HMG domain B [expressed and purified from pHB1/*Escherichia coli* BL21 (DE3) (Chow et al. (1995) *Biochemistry* 33: 15124–30)] was added, and the solution was incubated for 30 min on ice to allow protein-DNA binding. For binding of the 123- and 82-bp probes to HMG1, 0.2 µg of BSA/mL, 2 µg of competitor chicken erythrocyte DNA, and 300 ng of HMG1 were included in the reaction mixtures. To induce photo-cross-linking of the protein—DNA complexes, the reaction mixtures contained in open microcentrifuge tubes were placed on ice and irradiated from about for 1–2 h at a distance of 4 cm from a transilluminator (Ultra-Violet Products, TM-15) equipped with one of several different lamps, with primary spectral outputs of 254, 302, or 365 nm. The light intensity, 2.6–2.9 J m^-2 s^-1, was measured with a UVX radiometer (Ultra-Violet Products). Following irradiation, the reaction mixtures were combined with 5 µL of gel-loading solution [10 M urea, 1.5 mM EDTA, 0.05% (w/v) bromophenol blue and xylene cyanol]. The DNA was denatured by heating at 90° C. for 4 min and then analyzed by denaturing PAGE. The denaturing 8% polyacrylamide gel was run to determine photo-crosslinking of HMG1 to globally platinated 123-bp probes. […]

HMG domain B (of HMG1) [2] = biological target: T1, HMG domain B (of HMG1); assay: EMSA; 10-40 equiv protein; conditions: tags: expressed from pHB1 in E. coli BL21(DE3); label: 5'-32P

[Pt(en)Cl2]-modified DNA
binding signal (fraction of cis-DDP probe) (HMG1): 0.5

B1: 15Pt/15B cisplatin-modified 15-bp duplex (dsDNA)
DNA 1: CCTCTCTGGTTCTTC
DNA 2: GAAGAACCAGAGAGG
modifications: single cis-[Pt(NH3)2{d(GpG)-N7(1),-N7(2)}] intrastrand cross-link at GG
binding result (HMG domain B (of HMG1) [1]): binds

CCTCTCTGGTTCTTC (ssDNA, single cis-[Pt(NH3)2{d(GpG)-N7(1),-N7(2)}] intrastrand cross-link at GG) [15Pt single strand]
binding result (HMG domain B (of HMG1) [2]): no binding
